Assay results from paper PMC7302216.

Biological target: SARS-CoV 2P DS S (SARS-CoV) (UniProt P59594)
Assay: negative-stain electron microscopy

“SARS-CoV 2P DS S (from UniProt P59594 14-1195) (domain or fragment)” gave a stoichiometry N of 3.
